The values below come from article PMC5895748.

In this experiment the target is human Toll-like receptor 5 (hTLR5) (human) (UniProt O60602).
Sequence of UniProt O60602 (O60602 21-858): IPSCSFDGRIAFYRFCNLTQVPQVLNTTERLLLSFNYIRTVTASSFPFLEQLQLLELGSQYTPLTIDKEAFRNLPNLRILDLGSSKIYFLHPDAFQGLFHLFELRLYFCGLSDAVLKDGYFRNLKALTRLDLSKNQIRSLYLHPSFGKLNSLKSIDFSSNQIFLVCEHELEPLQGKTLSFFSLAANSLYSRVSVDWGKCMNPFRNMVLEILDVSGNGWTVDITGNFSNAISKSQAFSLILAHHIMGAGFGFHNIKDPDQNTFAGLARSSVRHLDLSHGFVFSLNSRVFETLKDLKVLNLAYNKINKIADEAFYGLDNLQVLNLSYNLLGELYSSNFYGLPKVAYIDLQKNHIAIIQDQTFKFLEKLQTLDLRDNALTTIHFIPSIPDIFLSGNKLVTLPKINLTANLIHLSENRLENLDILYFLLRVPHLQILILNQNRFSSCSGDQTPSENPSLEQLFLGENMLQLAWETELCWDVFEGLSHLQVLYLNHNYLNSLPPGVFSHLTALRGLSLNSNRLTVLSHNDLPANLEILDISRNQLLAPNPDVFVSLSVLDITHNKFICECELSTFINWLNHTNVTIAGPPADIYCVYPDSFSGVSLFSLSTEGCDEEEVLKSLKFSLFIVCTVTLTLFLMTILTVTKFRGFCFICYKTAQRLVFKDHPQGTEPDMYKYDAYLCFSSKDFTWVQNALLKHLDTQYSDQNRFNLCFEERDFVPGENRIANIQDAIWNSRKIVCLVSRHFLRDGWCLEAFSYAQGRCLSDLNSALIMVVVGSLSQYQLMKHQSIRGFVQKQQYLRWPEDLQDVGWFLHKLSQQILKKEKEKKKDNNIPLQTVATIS
The substance “Bacillus cereus flagellin BC1658 (BcFlg) (natural protein)” gave an EC50 of TLR5 stimulation, HEK293blue-hTLR5 reporter cells (NF-kB-inducible SEAP) of 1.7 pM and an EC50 of TLR5 stimulation, HEK293blue-hTLR5 reporter cells (SEAP); protein incubated at 37 °C for 24 hours before the assay of 1.9 pM. For the substance “Bacillus cereus flagellin BC1659 (natural protein)”, the EC50 of TLR5 stimulation, HEK293blue-hTLR5 reporter cells (NF-kB-inducible SEAP) was 55.4 pM.

For “BcFlg^cF, T4 lysozyme fused to the C-terminal end of BcFlg”, the EC50 of TLR5 stimulation, HEK293blue-hTLR5 reporter cells (NF-kB-inducible SEAP) was 2.3 pM and the EC50 of TLR5 stimulation, HEK293blue-hTLR5 reporter cells (SEAP); protein incubated at 37 °C for 24 hours before the assay is 129 pM.

“BcFlg^mF, T4 lysozyme inserted into BcFlg residues 178-180”: the EC50 of TLR5 stimulation, HEK293blue-hTLR5 reporter cells (NF-kB-inducible SEAP) was 1.4 pM and the EC50 of TLR5 stimulation, HEK293blue-hTLR5 reporter cells (SEAP); protein incubated at 37 °C for 24 hours before the assay stood at 2.4 pM. In the case of “BcFlg^nF, T4 lysozyme fused to the N-terminal end of BcFlg”, the EC50 of TLR5 stimulation, HEK293blue-hTLR5 reporter cells (NF-kB-inducible SEAP) is 44.2 pM.
